Experimental data published in the supplement of paper PMC9112550, “Optimization of the antimicrobial peptide Bac7 by deep mutational scanning” (BMC Biology, 2022).

Tested on: Escherichia coli TOP10
Assay: shrunken log2 fold change of peptide-encoding DNA abundance (4.5 h post-induction vs induction); higher = less antimicrobial activity (less host growth inhibition)
Settings: time post-induction: 4.5 h; library: site-saturation at positions 5, 18, 19, 20
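Further: peptides expressed intracellularly from a pBAD plasmid library in pooled LB shake-flask culture, induced with 0.3% L-arabinose, DNA abundance read by NGS, three biological replicates, DESeq2 with apeglm shrinkage.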

Sequence | shrunken log2 fold change
RRIRARPPRLPRPRPRPKAHPRP | 0.491
RRIRERPPRLPRPRPRPRFTPRP | 1.87
RRIRRRPPRLPRPRPRPECVPRP | 0.419
RRIRRRPPRLPRPRPRPENCPRP | 0.0654
RRIRVRPPRLPRPRPRPVVFPRP | 0.00477
RRIRQRPPRLPRPRPRPTHQPRP | 0.403
RRIRYRPPRLPRPRPRPSQPPRP | -0.0421
RRIRARPPRLPRPRPRPLKWPRP | 0.218
RRIRARPPRLPRPRPRPVACPRP | 0.284
RRIRARPPRLPRPRPRPYLYPRP | -0.312
RRIRYRPPRLPRPRPRPNISPRP | -0.513
RRIRIRPPRLPRPRPRPQEKPRP | 0.0553
RRIRARPPRLPRPRPRPWSVPRP | 0.0303
RRIRARPPRLPRPRPRPPDLPRP | 0.829
RRIRSRPPRLPRPRPRPAWSPRP | 0.58
RRIRHRPPRLPRPRPRPRHDPRP | -0.0713
RRIRVRPPRLPRPRPRPPSFPRP | 0.0364
RRIRDRPPRLPRPRPRPFKYPRP | 0.0966
RRIRNRPPRLPRPRPRPWFRPRP | 0.0475
RRIRGRPPRLPRPRPRPYVPPRP | -0.529
RRIRFRPPRLPRPRPRPMDHPRP | -0.131
RRIRERPPRLPRPRPRPHKWPRP | -0.0895
RRIRQRPPRLPRPRPRPDYWPRP | 0.156
RRIRFRPPRLPRPRPRPECMPRP | 0.0416
RRIRGRPPRLPRPRPRPIWKPRP | 0.155

Sequence | shrunken log2 fold change
RRIRRRPPRLPRPRPRPVPPPRP | 0.77
RRIRMRPPRLPRPRPRPFPTPRP | 0.153
RRIRLRPPRLPRPRPRPGRMPRP | 0.123
RRIRIRPPRLPRPRPRPTTRPRP | -0.0487
RRIRCRPPRLPRPRPRPVCEPRP | 0.0301
RRIRVRPPRLPRPRPRPRQGPRP | 0.317
RRIRFRPPRLPRPRPRPHRMPRP | -0.15
RRIRGRPPRLPRPRPRPSLTPRP | 0.78
RRIRARPPRLPRPRPRPAFKPRP | 0.126
RRIRGRPPRLPRPRPRPAPWPRP | 0.891
RRIRQRPPRLPRPRPRPSKAPRP | 0.356
RRIRLRPPRLPRPRPRPHKCPRP | -0.0456
RRIRTRPPRLPRPRPRPRMWPRP | 0.227
RRIRMRPPRLPRPRPRPPWTPRP | 1.15
RRIRWRPPRLPRPRPRPGTCPRP | 0.0934
RRIRRRPPRLPRPRPRPPHDPRP | 1.49
RRIRWRPPRLPRPRPRPHNDPRP | -0.324
RRIRERPPRLPRPRPRPYCCPRP | -0.899
RRIRMRPPRLPRPRPRPLLCPRP | 0.473
RRIRKRPPRLPRPRPRPNIIPRP | 0.00713
RRIRRRPPRLPRPRPRPWNPPRP | -0.212
RRIRHRPPRLPRPRPRPGGQPRP | 0.0463
RRIRHRPPRLPRPRPRPITNPRP | -1.23
RRIRPRPPRLPRPRPRPCDTPRP | -0.193
RRIRERPPRLPRPRPRPNEGPRP | -0.0857

Sequence | shrunken log2 fold change
RRIRFRPPRLPRPRPRPPCDPRP | 0.0212
RRIRHRPPRLPRPRPRPERPPRP | -0.0369
RRIRMRPPRLPRPRPRPYVTPRP | -0.298
RRIRYRPPRLPRPRPRPFAGPRP | 4.12
RRIRSRPPRLPRPRPRPSGGPRP | -0.0437
RRIRLRPPRLPRPRPRPKYWPRP | -0.131
RRIRSRPPRLPRPRPRPCEPPRP | -1.02
RRIRQRPPRLPRPRPRPKNHPRP | -0.23
RRIRYRPPRLPRPRPRPDDWPRP | -0.437
RRIRSRPPRLPRPRPRPVHQPRP | 0.0888
RRIRPRPPRLPRPRPRPDLWPRP | 0.344
RRIRPRPPRLPRPRPRPLIRPRP | -0.218
RRIRARPPRLPRPRPRPEWWPRP | 0.945
RRIRQRPPRLPRPRPRPFLSPRP | 0.024
RRIRARPPRLPRPRPRPYWIPRP | -0.556
RRIRCRPPRLPRPRPRPFECPRP | -0.365
RRIRDRPPRLPRPRPRPWLYPRP | -0.68
RRIRCRPPRLPRPRPRPSTGPRP | -0.354
RRIRFRPPRLPRPRPRPMTKPRP | 0.0716
RRIRGRPPRLPRPRPRPPSFPRP | 0.653
RRIRYRPPRLPRPRPRPHTLPRP | -0.959
RRIRVRPPRLPRPRPRPWDKPRP | -0.0363
RRIRNRPPRLPRPRPRPETAPRP | 0.536
RRIRPRPPRLPRPRPRPPMPPRP | 0.442
RRIRPRPPRLPRPRPRPRLDPRP | 0.0787

Sequence | shrunken log2 fold change
RRIRIRPPRLPRPRPRPYQQPRP | -0.0163
RRIRPRPPRLPRPRPRPEGMPRP | 0.305
RRIRLRPPRLPRPRPRPDGHPRP | 0.0499
RRIRRRPPRLPRPRPRPQNSPRP | -0.266
RRIRRRPPRLPRPRPRPRWDPRP | 0.457
RRIRMRPPRLPRPRPRPLICPRP | 0.108
RRIRPRPPRLPRPRPRPKTLPRP | -0.0149
RRIRFRPPRLPRPRPRPPHIPRP | -0.21
RRIRQRPPRLPRPRPRPTPEPRP | 0.0617
RRIRLRPPRLPRPRPRPKQSPRP | -0.00745
RRIRGRPPRLPRPRPRPADFPRP | 0.149
RRIRHRPPRLPRPRPRPPCSPRP | -0.217
RRIRNRPPRLPRPRPRPSHKPRP | -0.291
RRIRCRPPRLPRPRPRPHNAPRP | -0.171
RRIRVRPPRLPRPRPRPMSEPRP | 0.0558
RRIRNRPPRLPRPRPRPYQGPRP | -0.00804
RRIRDRPPRLPRPRPRPKDAPRP | -0.018
RRIRSRPPRLPRPRPRPAIGPRP | -0.0608
RRIRDRPPRLPRPRPRPPFFPRP | 0.174
RRIRRRPPRLPRPRPRPRMYPRP | -0.152
RRIRCRPPRLPRPRPRPVIRPRP | -0.733
RRIRLRPPRLPRPRPRPNMIPRP | -0.571
RRIRTRPPRLPRPRPRPSDHPRP | -0.274
RRIRRRPPRLPRPRPRPNPWPRP | 0.231
RRIRERPPRLPRPRPRPSAYPRP | -0.354

Sequence | shrunken log2 fold change
RRIRRRPPRLPRPRPRPHTCPRP | 0.0847
RRIRTRPPRLPRPRPRPIYAPRP | 0.0866
RRIRVRPPRLPRPRPRPVGFPRP | 0.158
RRIRDRPPRLPRPRPRPSRVPRP | 0.0593
RRIRARPPRLPRPRPRPYWQPRP | 0.046
RRIRYRPPRLPRPRPRPQKTPRP | -0.0404
RRIRIRPPRLPRPRPRPSLQPRP | -0.331
RRIRDRPPRLPRPRPRPSQRPRP | -0.0409
RRIRWRPPRLPRPRPRPGPTPRP | 0.487
RRIRERPPRLPRPRPRPPMNPRP | -0.82
RRIRTRPPRLPRPRPRPPPAPRP | 0.746
RRIRSRPPRLPRPRPRPCSEPRP | -0.228
RRIRLRPPRLPRPRPRPSRLPRP | -0.0544
RRIRDRPPRLPRPRPRPMNCPRP | -0.00373
RRIRRRPPRLPRPRPRPSLYPRP | -0.35
RRIRFRPPRLPRPRPRPIDTPRP | -0.127
RRIRARPPRLPRPRPRPGINPRP | -0.242
RRIRVRPPRLPRPRPRPVQDPRP | 0.0752
RRIRRRPPRLPRPRPRPAHQPRP | 0.732
RRIRNRPPRLPRPRPRPWMMPRP | -0.594
RRIRIRPPRLPRPRPRPFFWPRP | 0.364
RRIRARPPRLPRPRPRPGKFPRP | -0.167
RRIRSRPPRLPRPRPRPCRKPRP | -0.012
RRIRIRPPRLPRPRPRPGQIPRP | -0.0559
RRIRARPPRLPRPRPRPDGRPRP | 0.197
